Measurements reported in US20150197559A1 (University of California, published 2015).

What was measured:
BoNT/B1 [1] = molecular target: T1, BoNT/B1 (Clostridium botulinum, UniProt P10844 2-1291); test: flow cytometry, yeast-displayed affinity matured scFv
T1 sequence: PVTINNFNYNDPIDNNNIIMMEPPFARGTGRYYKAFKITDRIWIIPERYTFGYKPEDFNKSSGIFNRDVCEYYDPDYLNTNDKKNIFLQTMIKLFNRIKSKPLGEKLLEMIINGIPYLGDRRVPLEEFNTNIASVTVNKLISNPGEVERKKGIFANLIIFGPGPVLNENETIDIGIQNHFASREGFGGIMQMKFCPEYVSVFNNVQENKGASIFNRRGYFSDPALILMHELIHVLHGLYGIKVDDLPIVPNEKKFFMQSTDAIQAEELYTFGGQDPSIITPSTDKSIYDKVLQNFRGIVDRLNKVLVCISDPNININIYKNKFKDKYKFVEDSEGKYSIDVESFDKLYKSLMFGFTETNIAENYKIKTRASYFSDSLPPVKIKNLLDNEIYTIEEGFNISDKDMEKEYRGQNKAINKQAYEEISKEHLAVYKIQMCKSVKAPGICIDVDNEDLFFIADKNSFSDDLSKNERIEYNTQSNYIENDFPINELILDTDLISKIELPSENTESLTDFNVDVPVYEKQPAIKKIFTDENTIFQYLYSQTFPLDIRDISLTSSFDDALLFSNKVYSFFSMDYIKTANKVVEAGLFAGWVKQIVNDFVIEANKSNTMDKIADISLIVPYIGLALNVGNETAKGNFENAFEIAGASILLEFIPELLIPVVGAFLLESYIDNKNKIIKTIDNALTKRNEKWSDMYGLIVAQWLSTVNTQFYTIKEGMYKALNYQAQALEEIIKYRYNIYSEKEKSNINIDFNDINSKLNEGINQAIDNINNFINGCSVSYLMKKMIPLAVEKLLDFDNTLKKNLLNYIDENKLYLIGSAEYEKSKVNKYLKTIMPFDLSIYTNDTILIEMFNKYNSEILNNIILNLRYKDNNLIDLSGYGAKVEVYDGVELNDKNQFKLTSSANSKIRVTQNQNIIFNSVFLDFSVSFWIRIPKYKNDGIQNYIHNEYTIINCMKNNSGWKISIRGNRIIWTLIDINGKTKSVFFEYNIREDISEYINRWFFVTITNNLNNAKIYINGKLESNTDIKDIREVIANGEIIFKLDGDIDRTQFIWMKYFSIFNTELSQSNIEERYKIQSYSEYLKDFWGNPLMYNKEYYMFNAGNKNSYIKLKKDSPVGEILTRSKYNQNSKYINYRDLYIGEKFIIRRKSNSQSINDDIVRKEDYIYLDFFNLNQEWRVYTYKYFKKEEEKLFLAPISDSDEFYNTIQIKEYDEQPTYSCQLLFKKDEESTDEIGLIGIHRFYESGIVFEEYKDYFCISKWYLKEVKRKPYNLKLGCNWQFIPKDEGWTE

BoNT/B1 [2] = molecular target: T1, BoNT/B1; test: yeast-displayed scFv, flow cytometry; reference parental scFv 1B18
BoNT/B1 [3] = molecular target: T1, BoNT/B1; test: KinExA flow fluorimetry, IgG in solution

B1: 2B18.1 scFv (scFv)
scFv: QVQLVQSGGGLVQPGGSRRLSCAASGFYFNAYWMTWVRQAPGKGLEWVANINLDGTEIYYLDSVKGRFTVSRDNVKNSVFLQMSSLRVEDTAVYFCARLEWGGRNGWVSPWGQGTLVTVSSGGGGSGGGGSGGGGSDIVMTQSPSSLSASVGDRVSISCRASQSISSYLNWYQQKPGKAPKLLIYKTSSLESGVPSRFSGRGSGTDFTLTISSLQPEDFATYYCQQSYSTPLTFGGGTKVEIKR
Kd (BoNT/B1 [1]): 0.638 nM
Fold increase in affinity scFv (KD wild type/KD matured) (BoNT/B1 [2]): 11.4 fold

B2: 2B18.1 IgG (antibody, V domains shown)
VH: QVQLVQSGGGLVQPGGSRRLSCAASGFYFNAYWMTWVRQAPGKGLEWVANINLDGTEIYYLDSVKGRFTVSRDNVKNSVFLQMSSLRVEDTAVYFCARLEWGGRNGWVSPWGQGTLVTVSS
VL: DIVMTQSPSSLSASVGDRVSISCRASQSISSYLNWYQQKPGKAPKLLIYKTSSLESGVPSRFSGRGSGTDFTLTISSLQPEDFATYYCQQSYSTPLTFGGGTKVEIKR
Kd (BoNT/B1 [3]): 0.0724 nM
